# Results as given in the RNAGym collection of RNA variant scans (doi:10.1073/pnas.2313332121).
# B1: TPR t1 (parent)
# chain: GACCAAUCUGCCCUCAGAGCUCGAGAACAUCUUCGGAUGCAGAGGAGGCAGGCUUCGGUGGCGCGAUAGCGCCAACGUCCUCAACCUCCAAUGCAUCCCACCACAUGAUGAUGCCUGAAGAGCCUUGGUUUUUUG
# Variants of: B1
# Experiment: polymerase ribozyme fitness, log enrichment relative to wild type (log ratio); higher = more active; in vitro selection for triplet polymerase activity
# How it was run: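 Both subunits of a heterodimeric triplet polymerase ribozyme were given their own mutant library, built by PCR and transcribed. Each library was annealed with a biotinylated primer, the partner subunit and triplets, incubated frozen at −7 °C, and its extended constructs gel-excised, captured on streptavidin beads and amplified by RT-PCR, all in one round done in triplicate. Fitness is the logarithm of genotype enrichment relative to wild-type enrichment, with replicates averaged by inverse-variance weighting. That logarithm is base 2, and Illumina-sequenced genotypes needed ≥10 input reads and ≥1 read per output.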
row,Variant,polymerase ribozyme fitness (log ratio)
1,GACCAAUCUGCCCUCAGAGCACGAGAACAUCUUCGGAUGCAGAGGACGCAGGCUUCGGUGGCGCGAUAGCGCCAACGUCCUCAACCUCCAAUGCAUCCCACCACAUGAUGAUGCCUGAAGAGCCUUGGUUUUUUG [U21A G47C],-1.67
2,GACCAAUCUGCCCUCAGAGCACGAGAACAUCUUCGGAUGCAGAGGAGGCAGGCUUCGGUGGCGCGAUAGCGCCAACGUCCUCAACCUCCAAUGCAUCCCACCACAUGAUGAUGCCGGAAGAUCGUAGGUUUUUUG [U21A U116G G122U C124G U126A],-1.21
3,GACCAAUCUGCCCUCAGAGCACGAGAACAUCUUCUGAUGCAGAGGAGGCAGGCUUCGGUGGCGCGAUAGCGCCUACGUCCUCAACCUCCAAUGCAUCCCACCACAUGAUGUUGCCUGAAGAGCCUUGGUUUUUUG [U21A G35U A74U A111U],-6.43
4,GACCAAUCUGCCCUCAGAGCACGAGAACAUCUUCGGAUGCAGAGGAGGCAGGCUUCGGUGCCGCGAUAGCGCCAACGUCCUCAACCUCCAAUGCAUCCCACCACAUGAUGAUGCCUGAAGAGCCUUGGUUUUUUG [U21A G61C],-1.97
5,GACCAAUCUGCCCUCAGAGCACGAGAACAUCUUCGGAUGCAGAGGAGGCAGGCUUCGGUGGCGCGAUAGCGCCAACGUCCUCAACCUCCAAUGCAUCCCACCACAUGAUGAAGCCUGAAGAGCCUUGGUUUUUUG [U21A U112A],1.06
6,GACCAAUCUGCCCUCAGAGCACGAGAACAUCUUCGGAUGCAGAGGAGGCAGGCCUCGGUGGCGCGAUAGCGCCAACGUCCUCAACCUCCAAUCCAUCCCACCACAUGAUGAUGCCUGAAGAGCCUUGGUUUUUUG [U21A U54C G93C],-1.26
7,GACCAAUCUGCCCUCAGAGCACGAGAACAUCUUCGGAUGCAGAGGAGGCAGGCUUCGGCGGCGCGAUAGCGCCAACGUCCUCAACCUCCAAUGCAUCCCACCACAUGAUGAUGCCUGAAGAGACUUGCUUUUUUG [U21A U59C C123A G128C],-2.93
8,GACCAAUCUGCCCUCAGAGCCCGAGAGCAUCUUCGGAUGCAGAGGAGGCAGGCUUAGGUGGCGCGAUAGCGCCAACGUCCUCAACCUACAAUGCAUCCCACCACAUGAUGAUGCCUGAAGAGCCUUGGUUUUUUG [U21C A27G C56A C88A],-4.66
9,GACCAAUCUGCCCUCAGAGCACGAGAACAUCUUCGGAUGCAGAAGAGGCAGGCUUCGGUGGCGCGAUAGCGCCAACGUCCUCAACCUCCAAUGCAUCCCACCACAUGAUGAUCCCUGAAGAGCCUUGGUUUUUUG [U21A G44A G113C],-3.04
10,GACCAAUCUGCCCUCAGAGCACGAGAACAUCUUCGGAUGCAGAGGAGGCAGGCUUCGGUUGCGCGAUAGCGCCAACGUCCUCUACCUCCAAUGCAUCCCACCACAUGAUGAUGCCUGAAGAGCCUCGGUUUUUUG [U21A G60U A83U U126C],-0.934
11,GACCAAUCUGCCCUCAGAGCACGAGAACAUCUUCGGAUGCAGAGGAGGCAGGCUUCGGUAGCGCGAUAGCGCCAACGUCCUCAACUUCCAAUGCAUCCCACCACAUGAUGAUGCCUGAAGAGCCUUGGUUUUUUG [U21A G60A C86U],-1.23
12,GACCAAUCUGCCCUCAGAGCACGAGAACAUCUUCGGAUGCAGAGGAGGCAGGCUUCGGUGCCGCGAUAGCGCCAACGUCCUCAACCUCCAAUGCAUCCCACCACAUGAUGAAGCCUGAAGAGCCUUGGUUUUCUG [U21A G61C U112A U133C],-0.24
13,GACCAAUCUGCCCUCAGAGCACAAGAACAUCUUCGGAUGCAGAGGAGGCAGGCUUCGGUGGCGCGAUAGCGCCAAGGUCCUCAACCUCCAAUGCAUCCCACCACAUGAUGAUUCCUGAAGAGCCUUGGUUUUUUG [U21A G23A C76G G113U],-7.66
14,GACCAAUCUGCCCUCAGAGCACGAGAACAUCUUCGGAUGCAGAGGAGGCAGGCUUCGGUGGCGCGAUAGCGCCAACAUCCUCAACCUCCAAUGCAUCCCACCACAUGAUGAUGCCUGAAGAGCCUUGGUUUUUUG [U21A G77A],0.00839
15,GACCAAUCUGCCCUCAGAGCACGAGAACAUCUUCGGAUGCAUAGGAGGCAGGCUUCGGUCGCGCGAUAGCGCCAACGUCCUCAACCUCCAAUGCAUCCCACCACAUGAUGAUGCCUGAAGAGCCUUGGUUUUUUG [U21A G42U G60C],-2.45
16,GACCAAUCUGCCCUCAGAGCACGAGAACAUCUUCGGAUGCAGAGUAGGCAGGCUUCGGUGGCACGAUAGCGCCAACGUCCUCAACCUCCAAUGCAUCCCACCACAUGAUGAUCCCUGAAGAGCCUUGGUUUUUUG [U21A G45U G63A G113C],-6.02
17,GACCAAUCUGCCCUCAGAGCACGAGAACAUCUUCGGAUGCAGAGGAGGCAGGCUUCGGUGGCGCGAUAGCGCCAACGUCCACAACCUCCAAUGCAUCCCACCACAUGAUGAUGCCUGAAGAGCCUUGGUUUUUUG [U21A U81A],-1.49
18,GACCAAUCUGCCCUCAGAGCACGAGAACAUCUUCGGAUGCAAAGGUGGCAGGCUUCGGUAGCGCGAUAGCGCCAACGUCCUCAACCUCCAAUGCAUCCCACCACAUGAUGAUGCCUGAAGAGCCUUGGUUUUUUG [U21A G42A A46U G60A],-4.47
19,GACCAAUCUGCCCUCAGAGCACGAGAACAUCUUCGGAUUCAGAGGAGGCAGGCUUCGGUGGCGUGAUAGCGCCAACGUCCUCAACCUCCACUGCAUCCCACCACAUGAUGAUGCCUGAAGAGCCUUGGUUUUUUG [U21A G39U C64U A91C],-2.67
20,GACCAAUCUGCCCUCAGAGCACGAGAACAUCUUCGGAUGCAGAGGAGGCAGACUUCGGUGGCGCGAUAGCGCCAUCGUCCUCAACCUCCAAUGCAUCCCACCACAUGAUGAUGCAUGAAGAGCAUUGGUUUUUUG [U21A G52A A75U C115A C124A],1.07
21,GACCAAUCUGCCCUCAGAGCACGAGAACAUCUUCGCAUGCAGAGGAGGCAGGCUUCGGUGGCGCGAUAGCGCCAACGUCCUCAACCUCCAAUGCAUCCCACCACAUGAUGAUUCCUGAAGAGCCUUGGUUUUAUG [U21A G36C G113U U133A],-2.25

row,Variant,polymerase ribozyme fitness (log ratio)
1,GACCAAUCUGCCCUCAGAGCACGAGAACAUCUUCGGAUGCAGAGGAGGCAGGCUUCGGUGGCGCGAUAUCGCCAACGUCCUCAACCUCCAAUGCAUCCCACCACAUGAUGAUGCCUGAAGAGCCUUGGUUUUUUG [U21A G69U],0.577
2,GACCAAUCUGCCCUCAGAGCACGAGAACAUCUUCGGAUGCAGAGGAGGCAGGCUUCGGAGGCGCGAUAGCGCCAACGUCCGGAACCUCCAAUGCAUCCCACCACAUGAUGAUGCUUGAAGAGCCUUGGUUUUUUG [U21A U59A U81G C82G C115U],-5.96
3,GACCAAUCUGCCCUCAGAGCACGAGAACAUCUUCGGAUGCAGAGGAGGCAGGCUUCGGUGACGCGAUAGCGCCAACGUCCUCAACCUACAAUGCAUCCCACCACAUGAUAAUGCCUGAAGAGCCUUGGUUUUUUG [U21A G61A C88A G110A],-4.74
4,GACCAAUCUGCCCUCAGAGCACGAGAACAUCUUCGGAUGCAUAGGAGGCAGGCUUCGGUGGCGCGAUAGCGCCAACGUCCUCAACCUCCAAUGCAUCUCACCAUAUGAUGAUGGCUGAAGAGCAUUGGUUUUUUG [U21A G42U C98U C104U C114G C124A],-5.22
5,GACCAAUCUGCCCUCAGAGCACGAGAACAUCUUCGGAUGCAGAGGAGGCAGGCCUCGGUGACGCGAUAGCGCCAACGUCCUCAACCUCCAAUGCAUCCCACCACAUGAUGGUGCCUGAAGAGUCUUGGUUUUUUG [U21A U54C G61A A111G C123U],-5.38
6,GACCAAUCUGCCCUCAGAGCCCGAGAUCAUCUUCGGAUGCAGAGGAGGCAGGCUUCGGUGGCGCGAUAGCGCCAACGUCCUCAACCUCCAAUGCAUCCCACCACAUGAUGAUGCCUGAAGAGCCUUGGUUUUUUG [U21C A27U],-4.9
7,GACCAAUCUGCCCUCAGAGCACGAGAACAUCUUCGGAGGCAGAGGAGGCAGGCUUAGGUGGCGCGAUAGCGCCAACGUCCUCAACCUCCAAUGCAUCCCACCACAUGAUGAUGCCUGAAGAGCCUUGGUUUUUUG [U21A U38G C56A],-1.66
8,GACCAAUCUGCCCUCAGAGCACGAGAACAUCUUCGGAUGCAGAGGAGGCAGGCUUCGGUGGCGCGAUAGCGCCAACGUCCUCAACCUCCAAUGCAUCCCACCAUAUGAUGAUGCCUAAAUAGCCUUGGUUUUUUG [U21A C104U G117A G120U],-3.67
9,GACCAAUCUGCCCUCAGAGCACGAGAACAUCUUCGGAUGCAGAGGAGGCAGGCUUCGGUGGCGCGAUAGCGCCAACGUCCUCAACCUCCAAUGCAUCCCACGACAUGAUGAUUCCUGUAGAGCCUUGGGUUUUUG [U21A C102G G113U A118U U129G],-6.08
10,GACCAAUCUGCCCUCAGAGCCCGAGGACAUCUUCGGAUGCAGAGGAGGCAGGCUUCGGUGGCGCGAUAGCGCCAACGUCCUCAACCUCCAAUGCAUCCCACCACAUGAUGAUGCCUGAAGAGCCUUGGUUUUUUG [U21C A26G],-2.38
11,GACCAAUCUGCCCUCAGAGCACGAGAACAUCUUCGGAUGCACAGGAGGCAGGCUUCGGCGGCGCGAUAGCGCCAACGUCCUCAACCUCCAAUGCAUCCCACCACAUGAUGAUGCCUGAAGAGCCUUGGUGUUUUG [U21A G42C U59C U130G],-2.41
12,GACCAAUCUGCCCUCAGAGCACGAGAACAUCUUCGGAGGCAGAGGAGGCAGGCCUCGGAGGCGCGAUAGCGCCAACGUCCUCAACCUCCAAUGCAUCCCACCACAUGAUGAUGCCUGAAGAGCCUUGGUUUUUUG [U21A U38G U54C U59A],-1.06
13,GACCAAUCUGCCCUCAGAGCCCGAGAACGUCUUCGGUUGCAGAGGAGGCAGGCUUCGGUGGCGCGAUAGCUCCAACGUCCUCAACCUCCAAUGCAUCCCACCACAUGAUGAUGCCUGAAGAGCCUUGGUUUUUUG [U21C A29G A37U G71U],-1.56
14,GACCAAUCUGCCCUCAGAGCACGAGAACAUCUUCGGAUGCAGAGGAGGCAGCCUUAGGUGGCGCGAUAGCGCCAAUGUCCUCAACCUCCAAUGCAUCCCAUCACAUGAUGAUGCCUGAAGAGCCUUGGUUUUUUG [U21A G52C C56A C76U C101U],-3.81
15,GACCAAUCUGCCCUCAGAGCACGAGAACAUCUUCGGAUGCAGAGGAGGCAAGCUUCUGUGGCGCGAUAGCGCCAACGUCCUCAACCUCCAAUGCAUCCCACCACAUGAUGAUGCCUGAAGAGCCUUGGUUUUUUG [U21A G51A G57U],-2.59
16,GACCAAUCUGCCCUCAGAGCACGAGAACAUCUUCGGAGGCAGAGGAGGCAGGCUUAGGUGGCGCGAUAGCGCCAACGCCCUCAACCUCCAAUGCAUCCCACCACAUGAUGAUGCCUGAAGAGCCUUGGUUUUUUG [U21A U38G C56A U78C],-1.08
17,GACCAAUCUGCCCUCAGAGCACGAGAACAUCUUCGGAUGCAGAGGAGGCAGGCUUCGGUGCCGCGAUAGCGCCAACGUCCUCAACCUCCAAUGCAUCCCACCACAUGAUGAUGACUGAAGAGCCUUGGUUUUUUG [U21A G61C C114A],-2.8
18,GACCAAUCUGCCCUCAGAGCACGAGAACAUCUUCGGAUGCAGAGGAGGCAGGCUUCGGUGGCUCGAUAGCGCCAACGUCCUCAACCUCCAAUGCAUCCCACCACAUGAUGAUGCCUGAAGAGCCUUGGUUUUUUG [U21A G63U],-1.92
19,GACCAAUCUGCCCUCAGAGCACGAGAACAUCUUCGGAUGCAGAUGAGGCAGGCUUCGGUGGCGCGAUAGCGCCAACGUCCUCAACCUCCAAUGCAUUCCACCACAUGAUGAUACCUGAAGAGCCUUGGUUUUUUG [U21A G44U C97U G113A],-2.33
20,GACCAAUCUGCCCUCAGAGCCCGGGGACAUCUUCGGAUGCAGAGGAGGCAGGGUUCGGUUGCGCGAUAGCGCCAACGUCCUCAACCUCCAAUGCAUCCCACCACAUGAUGAUGCCUGAAGAGCCUUGGUUUUUUG [U21C A24G A26G C53G G60U],-5.16
21,GACCAAUCUGCCCUCAGAGCACGAGAACAUCUUCGGAUGCAUAGGAGGCAGGCUUCGGUGGCCCGAUAGCGCCAACGUCCUAAACCUCCAAUGCAUCCCACCACAUGAUGAUGCCUGAAGAGCCUUGGUUUUUUG [U21A G42U G63C C82A],-3.34
